22 sequences from a protein production outcome set (Wang et al. 2014) can be followed below.

A short description of this data set: label from the status in PepcDB records.
Consider “MAQVNKQAIAAAFGRAASQYEQHASLQQHSADALLTLLTGRQFASVLDAGCGPGRMSRYWRERGSEVTALDLSLPMLQQARDRQAAHHYLLADIEAIPHDAEVFDLAWSNLAVQWCGDLRDALSELYRVVRPGGVVAFTTLCQGSLPELRQAWQAVDNRAHANSFLPEEAIDHALRGWRAFRHTQAMTLWFEDALSAMRSLKGIGATHLHEGRESDVLTRARLRQIQLAWPQRQGKYPLTYHLFMGVIERD”, for which the protein production entry is on record as “failed”.

Turning to “MARANFEPYGRDFPGGRATGRFCNGRLSSDFTSEAYGLKPTVPAYLDPSYNISDFATGVCFASAGTGYDNSTADVLGVIPLWKEVEYFKEYQSNLSAYLGHRRAAKIIRESLYIVSIGTNDFLENYYTLPDRRSQFSISQYQDFLVEIAEVFLKDIYRLGARKMSFTGISPMGCLPLERVTNLDDPFSCARSYNDLAVDFNGRLRRLVTKLNRELTGIKIYFANPYDIMWDIVTKPNLYGLEISSSACCGTGLFEMGFLCGQDNPLTCSDANKFVFWDAFHPTERTNQIVSDHFFKHLKNLFH”, the protein production entry was “failed”.

As for “MARAVHRSGLVALGIATALMASCAFAAKDVVVAVGSNFTTLDPYDANDTLSQAVAKSFYQGLFGLDKEMKLKNVLAESYTVSDDGITYTVKLREGIKFQDGTDFNAAAVKANLDRASDPANHLKRYNLYKNIAKTEAIDPTTVKITLKQPFSAFINILAHPATAMISPAALEKYGKEIGFYPVGTGPYELDTWNQTDFVKVKKFAGYWQPGLPKLDSITWRPVADNNTRAAMLQTGEAQFAFPIPYEQATLLEKNKNIELMASPSIMQRYISMNVTQKPFDNPKVREALNYAINRPALVKVAFAGYATPATGVVPPSIAYAQSYKPWPYDPVKARELLKEAGYPNGFSTTLWSSHNHSTAQKVLQFTQQQLAQVGIKAQVTAMDAGQRAAEVEGKGQKESGVRMFYTGWSASTGEADWALSPLFASQNWPPTLFNTAFYSNKQVDDFLAQALKTNDPAEKTRLYKAAQDIIWQESPWIPLVVEKLVSAHSKNLTGFWIMPDTGFSFEDADLQ”, the protein production entry was “not failed”. Regarding “MARGELPRASISDTIPMTMASIDAGSVRFTARADKRHLNPLGGVHGGFAATVLDSVTGCAIHSILEAGVGYGTVDLSVKRVKAVPEDTPLVAEGRVLHVPCAIGSQRADLMLAPPRLGRDRRCPAGHAPAGAARAACAPQGRLTPMRRPLNAAPAARRCGRTGTDRSRAPGRACAAPWSSAC”, the protein production entry is listed as “failed”.

With “MARIRIEAPGTIVYETLMDVRIGDINYANHLGNDALLRIAQEARLRLFRDWGYVDELHIDGVGIVVADAAICYLSEAFLGDVLRILVGTADIHRKGLDFIYQVIDDNSGREVARLKTGIVFFDYPARQVALMPESFSAKLGQLEHHHHHH”, the protein production result is “not failed”.

Turning to “MARLARLGEPFALATVVASSGSSPRKAGAKMLIRGDGSALGTVGGGHVEQDTLAAARASLAEGAPRTLEFVLTEEHGYACGGSMSVFIEPQGRRPLLVMFGAGHVGRAVTALAHGCGFRVIVVDERPEYAVPALLPGADEIVCVPVGAAFARLTLDRESFAVIATPGHVHDFDAVRGCLATEVGFIGLLGSRRKREALMKTLTEEGYEAGRQARVVTPVGLDIGAQTPEEIAVSIVGQLVKLRRQA”, the protein production result was “failed”.

Take “MARMKARSGKGRRVARDTWKTKSWYEIRTPQSFGGDLLGTTPANDPSNLLGRVTETSLKDLTNDHSKHMVRLYFKVDGVAGNNATTQFVGHNTTREYLKSLVRRRRSKIVTITDIRTKDGYKIRVKAMVLTAVRARDHHKTDIRKKMEQIIVNMARNSTFPEFVQAMLLGGLGSKIYATCKRIMPMKRVEIYKSEVMEFGKSATPVVEAPAETEVKEEVKKEVVETQTE”: the protein production result was “failed”. On to “MARPAYRLLAYSLWDLIPIAMAVAHFAFVLWLVLDFHALSWWVILPAALLYAVSLSWSINSISHNQIHNAYFTPGWMNRGFDLLLSVTIGFSQTLYRDIHNRHHRGNSDLPDANGKTVDPLSIYLHGKDGQPDNPWAYTFLSFFRDDPKEIYQEMQRKRPDDARWVKVEIGVTVAFYLALALYDWHAVLVLLPFWYLGQSLSSLNGYYEHLGGNPDLPIAWGVSSYSPLYNLIWMNNGYHAEHHYRPKMHWTKVKAFHREIREQQRAAGVKVIPVSHGLGFLVAHRKV”, for which the protein production result is “failed”. For the sequence “MARQSTKFSDKFLRALKPQEKPYDIREGDGFGVRVFPSGARSFFYMYHFDGKRRFLNLGKYPQLSLADARQKHRDAVSQHAKGIDPLAATQEQKRERREAITVADLIDEYVKNWAKVYKVERSATEDERALSKDVLPYWGKRKAKDIKRTDAIALLERIVRRGSPGQARNILKVGRKMYEFAIERKYVEANPFSRISKAVPATMPRTRSRVLTESEIKYIWSAIDKSAGSDETKRALKLILVTAQRPGEVIGMHRREIDGEWWTIPPERIKTEKDRTRSNSVGPQPHRVYLSPLALELIGDKDGYIFESPRGGAMDSKALSHVVHAAPLVPELVRDTEGHVFAGPCGPVAAKALMQLLEKEIAYPDKEKYYGLTRWTPHDLRRTARTRMSAINIPTRHAERVLNHTLPGIQKTYDLYRYDPQKKAALTKWAAYLEELLR”, the protein production entry is reported as “failed”. The entry for “MARRSICEERRQQAGAGQPRGRCSDWQRRQRTLRPDATPMPADGRPRCSCLFSLLLSDPDLWKSWMSSQTAAERELAELLVESLNLEDVQPADIDPEAPLFNTGLGLDSIDALELALAISKRYGFQLRSDNDENRRIFASLRALSAHVQANKTV” is “failed”. Then “MARSEGNRPRHRAVPQPSRIRKRLSRGVMTLVSVVALLMTGAGYWVAHGALGGITISQALTPEDPRSSGNNMNILLIGLDSRKDQEGNDLPWSVLKQLHAGDSDDGGYNTNTLILVHVGADGKVVAFSIPRDDWVPFTGVPGYNHIKIKEAYGLTKQYVAEQLANQGVSDRKELETRGREAARAATLRAVRSLTGVPIDYFAEINLAGFYDLAQTLGGVDVCLNHAVYDSYSGADFPAGRQRLNAAQALAFVRQRHGLDNGDLDRTHRQQAFLSSVMRELQDSGTFTNLDRLDNLMAVARKDVVLSAGWDEDLFRRMGDLAGGNVEFRTLPVVRYDNIDGQDVNIIDPTAIRAEVAAAFGSAPPTSQTAAAAKPNPSTVVDVVNAGSISGLASQVSGALLKRGYTAGQVRDRESGDPFTTAIEYGAGAETDAQNVADLLGIDAPNHPDPAVAPGHIRVTVDTNFSLPAPDEATAAATSTETSTYPLYGGGTTTDPTPDQGAPIDGGGVPCVN”, with “failed”; and “MARSFSLAKNPLFWQVAIAGIILDQLSKLWVSQAMDPVGTTWPLWSGVFHFTYVLNTGAAFSAFRGGAGWLKWLSLAVSVGLIIFAGKVPLRKLEQLGYGCILAGAVGNGIDRFLFGHVIDFLDFRLINFPIFNLADVSINIGIAALLWASFFPVSSRKVD”, with “failed”. As for “MARTFRSLRNFNYRVWASGAIVSNIGTWMQRTAQDWLVLTELTHHNATAVGIVMSLQFGPQMLLLPLTGYAADHFNRRKLLFITQTAMGLLALGLGLMTVTGLVRLWHVYVFALLLGCVTAFDAPARQTFVSDLVGEEDLPNAVALNSTSFNGARMIGPAITGLLIASIGTGWVFLINALSFVPVIGALRMLRQHELHLKPPAQRSRGSFLEGFRYVWKRPDLKAALFMLFLIGTFGLNFPIFISTMSVSAFHAGAGQYGLLSSTMAIGSVTGTLLAARRARPRMAILVGAATIFGVGCMFGALMPNAVLFGLTLAVIGASTQTFTTSTNSLVQISTEPAMRGRVIAILLAIALGTTPLGAPVVGWVADRFGPRWALGVGAASGFAAALVGLFYLMRNRNLRFYIETGRLRYSIDKPRQTAFMAAPAASVPNVVMSKAEDE”, the protein production entry is “failed”.

Turning to “MARYRGAVERLERRFGVSLALKGERRLSGKSALDKRAYGPGQHGQRRAKTSDYGLQLKEKQKAKMMYGISEKQFRSIFVEANRLDGNTGENLIRLIERRLDNVVYRMGFATTRSSARQLVTHGHVLVDGKRLDIPSYFVRSGQKIEIKEKTKSNSQVVRAMELTAQTGIVPWIDVEKDKKYGIFTRYPEREEVVVPIEERLIVELYSK”, the protein production entry was “failed”. The entry for “MASADKLINTDVPEKDVFAFHFLQSLSNLRKQNPFDTPDQKNYRVRKIKKAAYVSMARAAGGSSRLWSRALLRRADKDDNKIVRFSRRKWKISSKRRRSNQRAPVVEEAAERLRNLVPGGGGMETSKLMEETAHYIKCLSMQVKVMQCLVDGLSPK” is “failed”; for “MASDPITTQEFSPRQNAVLDQALRLLVEGGEKALTTSGLARAANCSKESLYKWFGDRDGLLAAMITFQQSKVRTFEKAGDRVSAPQLADHLEVFAHDLLDVLAGDVSLALNRLAIGQASRDGSKLGDLLLERGRRQIDRRARGLIEAGRRSGYLRFDDAEEAYRSFYGLIVSDLHVRMLLGEAPDKDFSARAKKAVVAFLTLYGTEKVHSELGGKVA” it is “not failed”.

As for “MASDTPGFYMDKLNKYRQMHGVAITYKELSTSGPPHDRRFTFQVLIDEKEFPEAKGRSKQEARNAAAKLAVDILDNENKVDCHT”, the protein production result is listed as “not failed”. For “MASEFDLIQRYFRRAHPSAVLGVGDDAALIQPSPGMELAVSADMLVANTHFYPNIDPWLIGWKSLAVNISDMAAMGAQPRWATLTIALPEADEDWISKFAAGFFACAAQFDIALIGGDTTRGPLTISVQIMGETPPGASLLRSTARADDDIWVSGPLGDAALALAAIQGRYPLSDTELAACGKALHQPQPRVVLGQALRGLAHSALDISDGLLADLGHILEHSQVGAEVWLKAIPKSEVVSAHSQEVAIQKMILSGGDDYELCFTASTQHRQQIADIGRQLSLDMAVIGRITDTQQLVIHGLDDAPLTLKEHGFDHFA”, the protein production entry is listed as “not failed”. As for “MASESSIDEKKKKAQVTQSNINKNTPQQLTDKDLFGNETTLAVSEEDIQAALDGDEFRVPLNSPVILVQSGNRAPETIMQEEMRKYYTVSTFSGIPDRQKPLTCNKNKDKNENEDVASAENMNWMQALRFVAAKGHQKAIIVYQDMLQTGKYDSALKSTVWSDYKNDKLTDAISLRYLVRFTLVDVATGEWATWSPVNYEYKVLPPLPDKNEASTTDMTEQQIMQLKQKTYKAMVKDLVNRYQLEHHHHHH”, the protein production result is recorded as “failed”. The entry for “MASGSTQVKYLGIYQKMKQQILDGEYKINEKIPSSPILAEEFGVSVLTIKKALDLLVRDGYIIRRRGSGTVVQDWRQQEKARMIQTLTGTKAVYGSEVESKIIEFTIVGADEIIAEKLGISVGDFVYKIIRLRIIHSIPTIMEHTWMPIAVIPGVEASVLEESIYSYIQNKLGLKVGTSVVRVKGIRPDDKEKQFMNLTNQDFLMRVEQVAYLTDGRTFEYSYADHLPETFEFETVITAKSYKEA” is “failed”. Consider “MASHELDYRILGESMQTVEIELDPGETVIAEAGAMNYMTGDIRFTARMGDGSDGSLLGKLWSAGKRKLGGESVFMTHFTNEGQGKQHVAFAAPYPGSVVAVDLDDVGGRLFCQKDSFLCAAYGTRVGIAFTKRLGAGFFGGEGFILQKLEGDGLVFVHAGGTLIRRQLNGETLRVDTGCLVAFTDGIDYDVQLAGGLKSMLFGGEGLLLTTLKGSGTVWLQSLPFSRLAGRIYDATFRAREEVRTNNG”, for which the protein production entry was “not failed”. As for “MASHISLKQLKVFTTITQHKTLTAASDSLFLSKAAVSMALSELEKQIGHHLFDRVNNRLILNQEGQKLLPLADELLNRAKDIESIFDGDQALSGQLRIGASDTIGNQVAPYLLSEFRQQTNHRSQSLFISNSAQICDMLTDYELDIALIEGKTLHPELQSTQFSEDEMCVICAPDYPAAHEGPVNLTELENSEWILREAGSGSREFFMRVVAPRLEHWHEAFQLNTTEALINSVSAGLGLGCLSRLSAEPAIRDGRVKLLDMPLDMKRRFWLLVHKEKYQSPLLKTFIEFCQDWERPTNLPLGNKSAK”, the protein production entry is on record as “failed”.
